Where only a bound is given, the exact number is not on record here.

This is an account of results in patent US20150259402A1.

The assay concerns the target Clostridium difficile toxin B (Clostridium difficile) (UniProt P18177). Briefly: cell-based or functional assay.

Chain of Clostridium difficile toxin B (Clostridium difficile) (P18177 2-2366 limits assumed): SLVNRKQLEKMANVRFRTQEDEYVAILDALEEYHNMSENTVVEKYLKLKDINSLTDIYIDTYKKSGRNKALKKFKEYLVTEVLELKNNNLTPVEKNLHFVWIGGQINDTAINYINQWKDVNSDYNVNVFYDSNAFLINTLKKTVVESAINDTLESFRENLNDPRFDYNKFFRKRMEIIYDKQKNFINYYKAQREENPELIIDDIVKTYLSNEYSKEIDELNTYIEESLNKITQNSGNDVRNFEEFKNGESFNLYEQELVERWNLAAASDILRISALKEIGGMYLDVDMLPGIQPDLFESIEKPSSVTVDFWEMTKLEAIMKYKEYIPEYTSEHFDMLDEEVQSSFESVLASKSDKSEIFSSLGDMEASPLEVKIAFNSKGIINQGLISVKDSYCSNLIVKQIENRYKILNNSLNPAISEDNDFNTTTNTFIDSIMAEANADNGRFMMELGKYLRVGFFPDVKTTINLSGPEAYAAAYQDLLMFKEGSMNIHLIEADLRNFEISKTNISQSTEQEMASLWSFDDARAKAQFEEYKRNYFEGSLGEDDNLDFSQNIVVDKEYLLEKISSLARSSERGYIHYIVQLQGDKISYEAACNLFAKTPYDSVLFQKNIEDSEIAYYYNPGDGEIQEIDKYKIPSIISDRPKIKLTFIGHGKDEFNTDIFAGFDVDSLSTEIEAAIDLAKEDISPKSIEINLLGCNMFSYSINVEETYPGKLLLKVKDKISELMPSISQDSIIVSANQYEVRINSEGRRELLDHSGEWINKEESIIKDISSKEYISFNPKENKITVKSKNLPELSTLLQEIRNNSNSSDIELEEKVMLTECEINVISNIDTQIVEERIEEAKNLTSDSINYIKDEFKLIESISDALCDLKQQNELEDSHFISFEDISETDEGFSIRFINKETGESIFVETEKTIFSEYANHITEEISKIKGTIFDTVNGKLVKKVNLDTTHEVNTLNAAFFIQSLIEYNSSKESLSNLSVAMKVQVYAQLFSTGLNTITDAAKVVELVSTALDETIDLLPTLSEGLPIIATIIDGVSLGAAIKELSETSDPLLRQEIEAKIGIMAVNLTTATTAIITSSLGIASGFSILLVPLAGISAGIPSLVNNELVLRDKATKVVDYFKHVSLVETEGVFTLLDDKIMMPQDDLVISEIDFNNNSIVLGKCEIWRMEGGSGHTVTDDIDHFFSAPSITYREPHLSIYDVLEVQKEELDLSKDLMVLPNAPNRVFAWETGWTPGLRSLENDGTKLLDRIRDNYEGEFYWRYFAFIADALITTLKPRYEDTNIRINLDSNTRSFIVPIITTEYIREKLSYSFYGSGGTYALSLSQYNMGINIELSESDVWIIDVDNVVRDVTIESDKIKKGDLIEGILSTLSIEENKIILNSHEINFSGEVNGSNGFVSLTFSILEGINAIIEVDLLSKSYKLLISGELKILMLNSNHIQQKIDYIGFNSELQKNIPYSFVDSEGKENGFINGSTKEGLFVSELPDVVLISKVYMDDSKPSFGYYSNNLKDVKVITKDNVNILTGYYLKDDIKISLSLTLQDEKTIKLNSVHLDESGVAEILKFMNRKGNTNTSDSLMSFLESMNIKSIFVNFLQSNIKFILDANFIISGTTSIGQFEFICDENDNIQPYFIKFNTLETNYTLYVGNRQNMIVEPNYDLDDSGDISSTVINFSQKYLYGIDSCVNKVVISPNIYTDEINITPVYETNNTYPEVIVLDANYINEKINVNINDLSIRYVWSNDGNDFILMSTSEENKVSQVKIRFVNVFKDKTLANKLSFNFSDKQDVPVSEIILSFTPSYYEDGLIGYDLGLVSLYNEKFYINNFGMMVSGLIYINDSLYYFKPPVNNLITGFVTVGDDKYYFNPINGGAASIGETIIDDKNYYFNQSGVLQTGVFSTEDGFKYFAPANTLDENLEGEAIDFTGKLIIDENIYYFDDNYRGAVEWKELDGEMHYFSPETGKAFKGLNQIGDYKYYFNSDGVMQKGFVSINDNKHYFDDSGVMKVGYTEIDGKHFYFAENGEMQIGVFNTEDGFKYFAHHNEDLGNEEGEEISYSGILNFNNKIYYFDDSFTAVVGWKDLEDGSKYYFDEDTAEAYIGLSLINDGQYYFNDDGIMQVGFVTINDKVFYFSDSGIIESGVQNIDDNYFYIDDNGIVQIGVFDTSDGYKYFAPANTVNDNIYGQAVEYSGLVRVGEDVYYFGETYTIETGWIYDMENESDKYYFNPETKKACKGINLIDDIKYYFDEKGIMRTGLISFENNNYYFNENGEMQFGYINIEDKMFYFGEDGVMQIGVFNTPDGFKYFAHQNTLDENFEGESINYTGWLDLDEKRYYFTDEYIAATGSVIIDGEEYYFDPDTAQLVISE

Substance MDX1388 (antibody) registered a neutralizing activity (EC50 value), rounding of toxin B-exposed IMR-90 cells of less than 0.1 µg/mL.
